From patent US20240066142A1, “A UPAR (UROKINASE PLASMINOGEN ACTIVATOR RECEPTOR)-TARGETING CONJUGATE” (FLUOGUIDE A/S, priority 2021, published 2024)
Values belong to the molecule of their own block, whether it stands above or below them. Primed or numbered codes have the meaning given here. [ ]: non-standard residue; d: D form. Cha = N[C@@H](CC1CCCCC1)C(=O)O; IRDye800CW′ = not defined here; AEEA = NCCOCCOCC(=O)O

How the values were obtained:
uPAR·uPA interaction = uPAR·uPA interaction (Homo sapiens, UniProt Q03405); test: SPR competition: inhibition of the uPAR·uPA interaction (immobilized human uPA, 2.5 nM uPAR); format: binding; settings: uPAR 2.5 nM pre-incubated 10 minutes with conjugate
Description: Surface plasmon resonance (SPR) was applied to determine the IC50-value of uPAR-targeting conjugate for its ability to inhibit the uPAR·uPA interaction. In brief, human recombinant uPA, which is the natural ligand for uPAR, was immobilized to the SPR sensor chip. Binding of uPAR at a concentration of 2.5 nM in the absence of UPAR-binding conjugate was examined, followed by analyses of a fixed uPAR concentration (2.5 nM) incubated with a 2-fold dilution series of uPAR-binding conjugate pre-incubated for 10 minutes at room temperature prior to injection. uPAR injection (at a rate of 50 μL/minute) was performed for 300 s (association), and dissociation was assessed for 500 s (at a rate of 50 μL/minute). The uPAR/uPAR-binding conjugate complex was injected from low to high concentration with a regeneration step followed by a buffer injection in between each injection. Regeneration was performed for 20 s by injection of 0.5 M NaCl+0.1 M Acetic acid at a 30 μL/min flow rate, followed by running buffer wash (running buffer: PBS supplemented with 0.01% Tween-20 and 50 μM EDTA).
From this type of SPR analysis, the IC50 values for uPAR-targeting conjugates were determined.
The top signal represents uPAR binding in the absence of uPAR-targeting conjugate.

human uPAR = human uPAR (Homo sapiens, UniProt Q03405); test: SPR binding of conjugate or uPA to immobilized His-tagged recombinant human uPAR
Description: SPR was also applied to determine the KD-value of binding of the uPAR-binding conjugate to uPAR.
The uPAR-binding conjugates as well as the endogenous ligand uPA were analyzed in 2-fold dilution series from low to high concentration with a running buffer injection in between each injection. Injection of uPAR-binding conjugate or uPA (at a rate of 50 μL/minute) was performed for 120 seconds (association), and dissociation was assessed for 120 s (at a rate of 50 μL/minute). Running buffer was PBS supplemented with 0.01% Tween-20 and 50 μM EDTA).
Binding affinities were determined using the above described SPR-based approach, measuring binding affinities (KD) of the uPAR-targeting conjugates to immobilized human uPAR protein (the tumor target protein).

[1] = target: recombinant human uPAR containing a His-tag (immobilized to a NTA chip) (human) (UniProt Q03405); test: SPR, His-tagged human uPAR on NTA chip, steady-state responses
[2] = target: human uPAR (urokinase Plasminogen Activator Receptor), in solution at 2.5 nM in the competition SPR assay (human) (UniProt Q03405); test: SPR competition: 2.5 nM uPAR pre-incubated with dilution series of conjugate, injected over immobilised human uPA
Sequence of human uPAR (urokinase Plasminogen Activator Receptor), in solution at 2.5 nM in the competition SPR assay (human) (Q03405 23-305 limits assumed): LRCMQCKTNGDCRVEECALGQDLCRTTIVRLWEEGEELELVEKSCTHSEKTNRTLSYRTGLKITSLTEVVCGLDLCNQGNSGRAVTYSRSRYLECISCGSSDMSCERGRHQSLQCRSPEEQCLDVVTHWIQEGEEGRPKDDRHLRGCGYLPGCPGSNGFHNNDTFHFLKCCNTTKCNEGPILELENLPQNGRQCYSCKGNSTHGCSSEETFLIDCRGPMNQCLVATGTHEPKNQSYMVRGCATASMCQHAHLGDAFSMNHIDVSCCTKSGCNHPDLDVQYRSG

Sequence of uPAR·uPA interaction (Q03405 23-305): as the sequence (Q03405 23-305 limits assumed) above
Sequence of recombinant human uPAR containing a His-tag (immobilized to a NTA chip) (human) (Q03405 23-305 limits assumed): as above

Molecule: Compound example 1: uPAR-targeting conjugate based on the fluorophore ICG and the peptide AE105 (DXFSRYLWS; D-residues; non-natural residues; cyclised or stapled)
IC50 (uPAR·uPA interaction): 7 nM
Kd (human uPAR; KD from steady state binding responses where Kon too fast): 2000 nM
Kon (human uPAR; on-rate binding): ≥4.6e+06 M⁻¹ s⁻¹

Molecule: CC(C)C[C@H](NC(=O)[C@H](Cc1ccc(O)cc1)NC(=O)[C@@H](CCCNC(=N)N)NC(=O)[C@@H](CO)NC(=O)[C@H](Cc1ccccc1)NC(=O)[C@H](CC1CCCCC1)NC(=O)[C@H](CC(=O)O)NC(=O)COCCOCCNC(=O)COCCOCCNC(=O)[C@H](CCC(=O)O)NC(=O)[C@H](CCC(=O)O)NC(=O)CCCCCN1C(=CC=C2CCCC(C=CC3=[N+](CCCCS(=O)(=O)[O-])c4ccc(S(=O)(=O)O)cc4C3(C)C)=C2Oc2ccc(S(=O)(=O)O)cc2)C(C)(C)c2cc(S(=O)(=O)O)ccc21)C(=O)N[C@@H](Cc1c[nH]c2ccccc12)C(=O)N[C@@H](CO)C(=O)O [Compound example 2, IRDye800CW-EE-020c-020c-DChaFsrYLWS-OH]
kon (human uPAR; on-rate binding): ≥ 4.6e+06 M⁻¹ s⁻¹

Kd [1]: 325 nM
IC50 [2]: 24 nM
B1: Compound example 2 (IRDye800CW-conjugated uPAR-targeting peptide, based on the fluorophore IRDye800CW and the peptide AE344) (peptide)
peptide: {IRDye800CW′}-EE[AEEA][AEEA]D[Cha]F[dS][dR]YLWS-OH
